Source: US20230038638A1, “COMPLEMENT FACTOR I-RELATED COMPOSITIONS AND METHODS” (published 2023)
Where a chain is given by its changes, count along the chain named.

Tests used:
C4b = target: T1, C4b (human, UniProt P0C0L4)
T1 sequence: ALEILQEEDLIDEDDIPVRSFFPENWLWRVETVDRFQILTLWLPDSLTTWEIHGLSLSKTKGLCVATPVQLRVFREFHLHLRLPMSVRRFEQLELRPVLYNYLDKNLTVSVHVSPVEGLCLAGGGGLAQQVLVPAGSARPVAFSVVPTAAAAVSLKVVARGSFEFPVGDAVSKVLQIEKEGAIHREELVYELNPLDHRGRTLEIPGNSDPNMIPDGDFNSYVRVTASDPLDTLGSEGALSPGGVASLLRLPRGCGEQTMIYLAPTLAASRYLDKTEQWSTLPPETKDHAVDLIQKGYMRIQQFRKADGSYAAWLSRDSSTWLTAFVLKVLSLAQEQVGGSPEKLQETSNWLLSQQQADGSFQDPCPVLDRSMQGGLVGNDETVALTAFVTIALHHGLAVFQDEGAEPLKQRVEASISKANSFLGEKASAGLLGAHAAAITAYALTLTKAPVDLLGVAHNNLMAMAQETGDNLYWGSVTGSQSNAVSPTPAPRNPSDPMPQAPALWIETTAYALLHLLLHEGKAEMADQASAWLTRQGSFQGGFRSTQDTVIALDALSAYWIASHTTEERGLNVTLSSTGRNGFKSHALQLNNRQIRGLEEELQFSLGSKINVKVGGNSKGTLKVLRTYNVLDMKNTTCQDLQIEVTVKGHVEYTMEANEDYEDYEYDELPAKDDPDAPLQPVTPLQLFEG

C3b [1] = target: T2, C3b (human, UniProt P01024)
C3b [2] = target: T2, C3b; remark: listed apart in the source
[3] = target: soluble human C3b (human) (UniProt P01024)
human C4b (human) [4] = target: T3, human C4b (human) (UniProt P0C0L4)
T3 sequence: T1 sequence

human C4b (human) [5] = target: T4, human C4b (human) (UniProt P0C0L5)
T4 sequence: T1 sequence with A151T, D317G, P364L, C365S, L368I, D369H, N420S, V451A, L454R, S530A

[6] = target: soluble human C3b (human) (UniProt P01024); remark: listed apart in the source
human C4b (human) [7] = target: T3, human C4b (human); remark: listed apart in the source
human C4b (human) [8] = target: T4, human C4b (human); remark: listed apart in the source

| C3b cleavage rate, kmut/kwt (C3b [1]) | C3b cleavage, % Activity (C3b [2]) [%] | iC3b EC50 [3] [nM] | C4b Screen Ref Fold (fold vs CFI-HSA wild type) (human C4b (human) [5]) | iC3b Screen Ref Fold (fold vs CFI-HSA wild type) [6] | iC3b Screen Ref Fold (fold of CFI-HSA wild type) [6] | C4b Screen Ref Fold (fold of CFI-HSA wild type) (human C4b (human) [7]) | Substance | other results |
| --- | --- | --- | --- | --- | --- | --- | --- | --- |
| – | – | – | – | – | – | – | CFI-HSA variant Y408L; E457G; N531G; P535G with hCR1; CCP15; CCP16; CCP17 C-terminal fusion (enzyme) | C4c No Cofactor EC50 (C4b cleavage, C4c ELISA) (C4b): 97.7 nM |
| 1 | – | – | – | – | – | – | CFI-HSA variant Y20F + D425R (enzyme) | – |
| – | 92 | – | – | – | – | – | CFI-HSA variant M220A + K221Q (enzyme) | – |
| – | 11 | – | – | – | – | – | CFI-HSA variant 514-MDANNVT (SEQ ID NO: 13)-520 → NG (hTrypsin 200-loop swap) (enzyme) | – |
| 1 | – | 24.3 | 0.31 | 1.21 | – | – | CFI-HSA variant N531A (enzyme) | C4c EC50 (nM) (human C4b (human) [4]): 278 nM |
| – | 82 | – | 0.07 | 0.38 | – | – | CFI-HSA variant S250A (enzyme) | – |
| – | 94 | – | – | 0.34 | – | – | CFI-HSA variant D26A (enzyme) | – |
| – | 7 | – | 0.14 | 0.05 | – | – | CFI-HSA variant Y20A (enzyme) | – |
| 0 | 58 | – | – | – | – | – | CFI-HSA variant K326A + R327A (enzyme) | – |
| 1 | 104 | 21.3 | 1.46 | 1.4 | – | – | CFI-HSA variant Y408L (enzyme) | C4c EC50 (nM) (human C4b (human) [4]): > 1000 nM |
| 3 | – | 11.1 | 5.37 | 1.58 | – | – | CFI-HSA variant E457G (enzyme) | C4c EC50 (nM) (human C4b (human) [4]): 138 nM |
| 1 | 105 | – | 0.42 | 1.34 | 0.11 | 2.86 | CFI-HSA variant D425K (enzyme) | – |
| 2 | – | 12 | 5.47 | 1.94 | – | – | CFI-HSA variant E461Q (enzyme) | C4c EC50 (nM) (human C4b (human) [4]): 121 nM |
| 1 | – | 8.3 | 6.26 | 2.1 | – | – | CFI-HSA variant N531G (enzyme) | C4c EC50 (nM) (human C4b (human) [4]): 58.4 nM |
| – | 106 | – | – | – | – | – | CFI-HSA variant E457G-E461Q-F464Y (enzyme) | – |
| 0 | 18 | – | – | – | – | – | CFI-HSA variant 456-… (SEQ ID NO: 9)-465 --> … (SEQ ID NO: 10) (human trypsin autolysis loop swap) (enzyme) | – |
| – | – | 3.2 | – | – | 1.28 | 4.39 | CFI-HSA variant N531G; E457G; N422K; T377G (enzyme) | C4c EC50 (human C4b (human) [8]): 4.2 nM |
| 1 | – | – | 1.86 | 1.01 | – | – | CFI-HSA variant P535A (enzyme) | – |
| – | – | 4.1 | – | – | 2.55 | 2.25 | CFI-HSA variant T377G; N422K (enzyme) | C4c EC50 (human C4b (human) [8]): 37.4 nM |
| – | 93 | – | 0.3 | 0.73 | – | – | CFI-HSA variant K14A (enzyme) | C4c EC50 (nM) (human C4b (human) [4]): 401 nM |
| – | 0 | – | – | – | – | – | CFI-HSA variant S507A (active site mutant) (enzyme) | – |
| – | 16 | – | 0.17 | 0.05 | – | – | CFI-HSA variant F29A (enzyme) | – |

| C3b cleavage rate, kmut/kwt (C3b [1]) | C3b cleavage, % Activity (C3b [2]) [%] | iC3b EC50 [3] [nM] | C4b Screen Ref Fold (fold vs CFI-HSA wild type) (human C4b (human) [5]) | iC3b Screen Ref Fold (fold vs CFI-HSA wild type) [6] | iC3b Screen Ref Fold (fold of CFI-HSA wild type) [6] | C4b Screen Ref Fold (fold of CFI-HSA wild type) (human C4b (human) [7]) | Substance | other results |
| --- | --- | --- | --- | --- | --- | --- | --- | --- |
| 0 | 21 | > 500 | 1.74 | 0.04 | – | – | CFI-HSA variant R557A (enzyme) | C4c EC50 (nM) (human C4b (human) [4]): 327 nM; C4b Screen Ref Fold (fold relative to CFI-HSA wild type) (human C4b (human) [5]): 1.72; iC3b Screen Ref Fold (fold relative to CFI-HSA wild type) [6]: -0.01 |
| – | – | 3.6 | – | – | 2.75 | 3.96 | CFI-HSA variant E461Q; N422K; T377G (enzyme) | C4c EC50 (human C4b (human) [8]): 7.9 nM |
| – | – | 4.5 | – | – | 1.54 | 4.33 | CFI-HSA variant N531G; E457G; T377G (enzyme) | C4c EC50 (human C4b (human) [8]): 2.9 nM |
| – | – | 334 | – | – | 0.03 | 3.28 | CFI-HSA variant R557A; N531M; Y403F; K504Y (enzyme) | C4c EC50 (human C4b (human) [8]): 76.3 nM |
| 1 | – | – | – | – | – | – | CFI-HSA variant S250A + D425R (enzyme) | – |
| – | – | 156 | – | – | 0.11 | 3.81 | CFI-HSA variant R557A; N531D; Y403F; K504Y (enzyme) | C4c EC50 (human C4b (human) [8]): 38.6 nM |
| – | 7 | – | 0.11 | 0.03 | – | – | CFI-HSA variant ΔC-term (Δ558-PFISQYNV (SEQ ID NO: 14)-565) (enzyme) | – |
| – | 35 | – | – | – | – | – | CFI-HSA variant Δ(K1-P305) (HSA-SPD) (enzyme) | – |
| – | – | 2.2 | – | – | 1.74 | 4.28 | CFI-HSA variant E457G; E461Q; N422K; T377G (enzyme) | C4c EC50 (human C4b (human) [8]): 5 nM |
| – | – | 9.4 | – | – | 1.88 | 0.19 | CFI-HSA variant D425K; Y408M (enzyme) | C4c EC50 (human C4b (human) [8]): > 1000 nM |
| – | -4 | – | – | 0.09 | – | – | CFI-HSA variant S250L (enzyme) | – |
| 1 | – | – | – | – | – | – | CFI-HSA variant E38A + D425R (enzyme) | – |
| – | 79 | – | 0.09 | 0.43 | – | – | CFI-HSA variant E38A (enzyme) | – |
| – | – | 38.2 | – | – | 0.36 | 4.28 | CFI-HSA variant R557A; N531G; Y403F; K504Y; E457G; E461Q (enzyme) | C4c EC50 (human C4b (human) [8]): 22.4 nM |
| – | 80 | – | 0.27 | 0.67 | – | – | CFI-HSA variant Y20F (enzyme) | – |
| 2 | – | – | – | – | – | – | CFI-HSA variant E457G + E461Q + R462K + F464Y (mouse CFI autolysis loop swap) (enzyme) | – |
| – | – | 3.5 | – | – | 2.37 | 3.61 | CFI-HSA variant E457G; E461Q; N422K (enzyme) | C4c EC50 (human C4b (human) [8]): 17.2 nM |
| 1 | 91 | 39.2 | 2.85 | 0.79 | – | – | CFI-HSA variant L307G (enzyme) | C4c EC50 (nM) (human C4b (human) [4]): 316 nM |
| – | – | 5.8 | – | – | 2.17 | 0.08 | CFI-HSA variant D425K; E530F (enzyme) | C4c EC50 (human C4b (human) [8]): > 1000 nM |
| – | 47 | – | 0.06 | 0.12 | – | – | CFI-HSA variant R35A (enzyme) | – |
| – | – | 14.6 | – | – | 1.57 | 0.1 | CFI-HSA variant D425K; Y408M; K504R (enzyme) | C4c EC50 (human C4b (human) [8]): > 1000 nM |
